Laboratory results reported in article doi:10.1101/351726.

Experiments:
[1] = target: full-length MyD88 fused to GFP at the N-terminus (human) (UniProt Q99836); assay: photon counting histogram
[2] = target: full-length MyD88 fused to GFP at the N-terminus (human) (UniProt Q99836); assay: single-molecule fluorescence brightness analysis

## full-length MyD88 fused to GFP at the N-terminus (from UniProt Q99836 1-296) (natural protein)
[1]
  stoichiometry N: > 100 proteins
[2]
  Kd: 120 nM
  stoichiometry N: > 80 GFP
